Data taken from patent US20190282673A1, “STAPHTAME ACTIVITY ON BIOFILMS” (priority 2016, published 2019).

Assays:
Type in all cases: cell-based, Staphylococcus aureus
S. aureus biofilms = assay: MBIC and checkerboard synergy on preformed biofilm (MTT assay); details: for MIC (drug alone) on biofilm: S. aureus MW2 72 h preformed biofilm, 6 hr treatment; for Activity on biofilms: S. aureus MW2 biofilm, drug alone
Experimental: […] LB supplemented with 50 μg/mL CaCl2 was used for daptomycin treatment wells. The contents of the well was aspirated out and discarded. The biofilm adhered to the wells was quantified by MTT assay as described above. The MBIC was defined as the minimum concentration of P128 or the drug showing no colour development. […] In each experiment, in addition to the combination MBIC, the MBIC of each drug was also determined individually. The fractional MBIC concentrations were determined by MTT dye method as described above. The FICI and synergy was also calculated in a similar manner.
The ability of P128 to inhibit growth of S. aureus in a preformed biofilm was measured by determining minimum biofilm inhibition concentration (MBIC), defined as minimum concentration showing growth inhibition in a MTT based assay. […] 11:226.
The assay was optimized using the standard S. aureus strain ATCC 29213. An overnight-grown culture of the strain was diluted 1:40 in LB broth 200 μL of diluted culture was aliquoted into microtiter plate wells. Microplates were placed in a shaker-incubator set to 37° C., and 100 rpm for 24 h followed by 48 h incubation under static conditions at 37° C. The contents of one set of four wells were aspirated and discarded. Wells were washed twice with 1×PBS and the presence of biofilm in the wells at the end of this 72-hour period was determined by metabolic dye-reduction assay method using MTT (3-(4, 5-dimethylthiazol-5-diphenyltetrazolium bromide; Himedia). In this assay, live cells reduce the dye leading to color formation which can be read at 570 nm, and the intensity of color can be correlated to number of live cells. 100 μL of PBS was added to the wells along with 10 μL of MTT solution. The plate was incubated for 2 h in the dark. After this, 110 μL of solvent solution solubilizing agent was added and the plate was incubated for 15 minutes at ambient temperature with gentle agitation. The absorbance was read at 570 nm in a microplate reader. Another set of four wells was processed for harvesting the biofilm and determination of CFUs present by plating on solid media. For biofilm inhibitory studies, the wells were washed twice with 1×PBS and challenged with various concentrations of P128 or other antibiotic drugs and incubated for 24 h at 37° C. The contents of the well was aspirated out and discarded. The biofilm adhered to the wells was quantified by MTT assay as described above. The MBIC was defined as the minimum concentration of P128 or the drug showing no colour development. […] In each experiment, in addition to the combination MBIC, the MBIC of each drug was also determined individually. The fractional MBIC concentrations were determined by MTT dye method as described above. The FICI and synergy was also calculated in a similar manner.
In order to determine whether P128 could synergize with known anti-Staphylococcus drugs to inhibit S. aureus in biofilms. […] The assays were performed in a 96 well checkerboard format using various concentrations of P128 and one of the antibiotics.

S. aureus MW2 biofilms = assay: Biofilm eradication/biomass removal, crystal violet staining; details: for Activity on preformed biofilm, crystal violet: 500 μg/mL for 24 h, MSSA and MRSA strains
Experimental: Dis. 209:1469-78 was followed. Briefly, S. aureus MW2 strain grown on blood agar plates was inoculated into TSB with 2% glucose and the culture was grown overnight. The culture was diluted 1:50 in TSB to achieve an […] of the diluted culture was added to 1.8 mL of TSB media aliquoted into each well of a 24 well plate (˜5×10^5 CFU). The plates were kept at 37° C. under static conditions for 18 h, the contents were aspirated, the wells were washed twice with 2.0 mLmL of 1×PBS, and 1 mLmL of media+1 mLmL of the drug was added to each well and incubated at 37° C. for 0, 2, 4 and 24 h. The contents were aspirated out at the stipulated time points and the wells were washed with 2 mL of 1×PBS. The wells were allowed to dry at 37° C. for 15 min and stained with 1 mLmL of 1% CV for 5 min. The wells were washed with 1 mLmL of 1×PBS, air dried and observed for intensity of blue color.
0.1% CV was used for staining biofilms. Post staining and washing steps, 1 mL 30% acetic acid is added to each well, incubated in RT for 5-10 min, contents in the well are mixed thoroughly and OD was read at 570 nm.

[1] = system: S. aureus MW2 biofilms on catheters; assay: Preformed biofilms on catheters, safranin staining and SEM; details: 18 hrs; P128 8 μg/mL (1×MIC); vancomycin 90 μg/mL (90×MIC); daptomycin 10 μg/mL (10×MIC)
Experimental: To study the efficacy of P128 on biofilms on catheters, an overnight-grown culture of S. aureus MW2 was diluted 1:40 in TSB containing 5% rabbit plasma. Catheter (JMS Infusion set) pieces of 1-2 cm size were cut, slit into two halves and added to the culture. The cultures with catheter pieces were incubated at 37° C. with shaking at 100 rpm for 24 h. Post incubation, the catheters were removed and rinsed twice in PBS to remove the adhering planktonic cells. The biofilms on catheters were challenged with 8, 4, 2 and 1 μg/mL of P128 or 15, 30 and 90 μg/mL of vancomycin or 10 μg/mL of daptomycin (with 50 μg/mL CaCl2) by transferring the catheter pieces into tubes containing the drugs. The tubes were incubated at 37° C. under static conditions for 18 hrs. The catheters were then removed from the tubes, rinsed once in PBS, and immersed in 0.1% safranin for 5 min. The stained catheters were washed once in PBS and allowed to dry. After drying, samples were fixed on aluminum stubs with double sided carbon adhesive tape, coated with 5-7 nm thickness gold using a sputter-coating system (Quorum Technologies; Q150T) and examined by SEM (Carl Zeiss; Neon 40) for the presence of biofilm structures.

[2] = Table 4, S. aureus ATCC 29213 preformed biofilm, 6 h
[3] = Table 4, S. aureus ATCC 29213 preformed biofilm, 24 h
[4] = Table 4, S. aureus B9241 preformed biofilm, 6 h
[5] = Table 4, S. aureus B9241 preformed biofilm, 24 h
[6] = Table 4, S. aureus BK1 preformed biofilm, 6 h
[7] = Table 4, S. aureus BK1 preformed biofilm, 24 h

CCCCCCCCCC(=O)N[C@@H](Cc1c[nH]c2ccccc12)C(=O)N[C@H](CC(N)=O)C(=O)N[C@@H](CC(=O)O)C(=O)N[C@@H]1C(=O)NCC(=O)N[C@@H](CCCN)C(=O)N[C@@H](CC(=O)O)C(=O)N[C@H](C)C(=O)N[C@@H](CC(=O)O)C(=O)NCC(=O)N[C@H](CO)C(=O)N[C@@H]([C@H](C)CC(=O)O)C(=O)N[C@@H](CC(=O)c2ccccc2N)C(=O)O[C@@H]1C [Daptomycin, daptomycin]
MIC (drug alone) on biofilm (S. aureus biofilms): 31.2 µg/mL | Activity on biofilms (S. aureus biofilms): relatively better activity | Activity on preformed biofilm, crystal violet (S. aureus MW2 biofilms): insignificant activity | Effect on catheter biofilm (safranin/SEM) [1]: significant reduction in biofilm mass

CC(=O)NC[C@H]1CN(c2ccc(N3CCOCC3)c(F)c2)C(=O)O1 [Linezolid, linezolid]
MIC (drug alone) on biofilm (S. aureus biofilms): >500 µg/mL | Activity on biofilms (S. aureus biofilms): poorly effective | Activity on preformed biofilm, crystal violet (S. aureus MW2 biofilms): insignificant activity

CN[C@H](CC(C)C)C(=O)N[C@H]1C(=O)N[C@@H](CC(N)=O)C(=O)N[C@H]2C(=O)N[C@H]3C(=O)N[C@H](C(=O)N[C@H](C(=O)O)c4cc(O)cc(O)c4-c4cc3ccc4O)[C@H](O)c3ccc(c(Cl)c3)Oc3cc2cc(c3O[C@@H]2O[C@H](CO)[C@@H](O)[C@H](O)[C@H]2O[C@H]2C[C@](C)(N)[C@H](O)[C@H](C)O2)Oc2ccc(cc2Cl)[C@H]1O [Vancomycin, vancomycin]
MIC (drug alone) on biofilm (S. aureus biofilms): 250 µg/mL | Activity on biofilms (S. aureus biofilms): poorly effective | MBIC (individual) (S. aureus biofilms; [2]): 7.8 µg/mL | MBIC (individual) (S. aureus biofilms; [3]): 218.75 µg/mL | MBIC (individual) (S. aureus biofilms; [4]): 31.25 µg/mL | MBIC (individual) (S. aureus biofilms; [5]): 125 µg/mL | MBIC (individual) (S. aureus biofilms; [6]): 31.25 µg/mL | MBIC (individual) (S. aureus biofilms; [7]): 250 µg/mL | Activity on preformed biofilm, crystal violet (S. aureus MW2 biofilms): insignificant activity | Effect on catheter biofilm (safranin/SEM) [1]: minimal effect

B1: P128: anti-staphylococcal chimeric protein: phage tail associated muralytic enzyme (TAME) cell wall-degrading region plus staphylococcus-specific binding region; SEQ ID NO: 1 (protein)
chain: MSLDSLKKYNGKLPKHDPSFVQPGNRHYKYQCTWYAYNRRGQLGIPVPLWGDAADWIGGAKGAGYGVGRTPKQGACVIWQRGVQGGSPQYGHVAFVEKVLDGGKKIFISEHNYATPNGYGTRTIDMSSAIGKNAQFIYDKKLETPNTGWKTNKYGTLYKSESASFTPNTDIITRTTGPFRSMPQSGVLKAGQTIHYDEVMKQDGHVWVGYTGNSGQRIYLPVRTWNKSTNTLGVLWGTIK
modifications: P128 chimera
MBIC fold higher than planktonic MIC (S. aureus biofilms; 2 h assay, sensitive and resistant strains of S. aureus): 1-4 fold | MBIC (S. aureus biofilms; S. aureus 8325-4 biofilm, 2 h): 7.8 µg/mL | MBIC (S. aureus biofilms; S. aureus 8325-4 biofilm, 4 h): 15.6 µg/mL | MBIC (S. aureus biofilms; S. aureus 8325-4 biofilm, 6 h): 15.6 µg/mL | MBIC (S. aureus biofilms; S. aureus 8325-4 biofilm, 8 h): 31.25 µg/mL | MBIC (S. aureus biofilms; S. aureus 8325-4 biofilm, 24 h): 1000 µg/mL | MBIC (S. aureus biofilms; S. aureus ATCC 29213 biofilm, 2 h): 3.9 µg/mL | MBIC (S. aureus biofilms; S. aureus ATCC 29213 biofilm, 4 h): 15.6 µg/mL | MBIC (S. aureus biofilms; S. aureus ATCC 29213 biofilm, 6 h): 15.6 µg/mL | MBIC (S. aureus biofilms; S. aureus ATCC 29213 biofilm, 8 h): 15.6 µg/mL | MBIC (S. aureus biofilms; S. aureus ATCC 29213 biofilm, 24 h): 250 µg/mL | MBIC (S. aureus biofilms; S. aureus B9241 biofilm, 2 h): 15.6 µg/mL | MBIC (S. aureus biofilms; S. aureus B9241 biofilm, 4 h): 125 µg/mL | MBIC (S. aureus biofilms; S. aureus B9241 biofilm, 6 h): 125 µg/mL | MBIC (S. aureus biofilms; S. aureus B9241 biofilm, 8 h): 125 µg/mL | MBIC (S. aureus biofilms; S. aureus B9241 biofilm, 24 h): >1000 µg/mL | MBIC (S. aureus biofilms; S. aureus B9356 biofilm, 2 h): 7.8 µg/mL | MBIC (S. aureus biofilms; S. aureus B9356 biofilm, 4 h): 15.6 µg/mL | MBIC (S. aureus biofilms; S. aureus B9356 biofilm, 6 h): 31.25 µg/mL | MBIC (S. aureus biofilms; S. aureus B9356 biofilm, 8 h): 62 µg/mL | MBIC (S. aureus biofilms; S. aureus B9356 biofilm, 24 h): >1000 µg/mL | MBIC (S. aureus biofilms; S. aureus BK1 biofilm, 2 h): 15.6 µg/mL | MBIC (S. aureus biofilms; S. aureus BK1 biofilm, 4 h): 31.25 µg/mL | MBIC (S. aureus biofilms; S. aureus BK1 biofilm, 6 h): 31.25 µg/mL | MBIC (S. aureus biofilms; S. aureus BK1 biofilm, 8 h): 31.25 µg/mL | MBIC (S. aureus biofilms; S. aureus BK1 biofilm, 24 h): 1000 µg/mL | MIC (drug alone) on biofilm (S. aureus biofilms): 6.25 µg/mL | MBIC (individual) (S. aureus biofilms; [2]): 6.04 µg/mL | MBIC (individual) (S. aureus biofilms; [3]): 200 µg/mL | MBIC (individual) (S. aureus biofilms; [4]): 105.15 µg/mL | MBIC (individual) (S. aureus biofilms; [5]): >1000 µg/mL | MBIC (individual) (S. aureus biofilms; [6]): 28.95 µg/mL | MBIC (individual) (S. aureus biofilms; [7]): 400 µg/mL | Time of treatment to eliminate the biofilms (S. aureus MW2 biofilms; P128 at 1×MIC (8 μg/mL)): ≤ 2 h | OD570 of crystal violet vs cell control (S. aureus MW2 biofilms; even after 24 h): significant drop in OD | Effect on catheter biofilm (safranin/SEM) [1]: eradication of the biofilm
